Assay results reported in patent US20180142032A1 (Sanofi, published 2018).

Tests used:
[1] = target: T1, human LAMP1 at the cell surface (human, UniProt P11279 29-417); assay: cell-based or functional assay
T1 sequence: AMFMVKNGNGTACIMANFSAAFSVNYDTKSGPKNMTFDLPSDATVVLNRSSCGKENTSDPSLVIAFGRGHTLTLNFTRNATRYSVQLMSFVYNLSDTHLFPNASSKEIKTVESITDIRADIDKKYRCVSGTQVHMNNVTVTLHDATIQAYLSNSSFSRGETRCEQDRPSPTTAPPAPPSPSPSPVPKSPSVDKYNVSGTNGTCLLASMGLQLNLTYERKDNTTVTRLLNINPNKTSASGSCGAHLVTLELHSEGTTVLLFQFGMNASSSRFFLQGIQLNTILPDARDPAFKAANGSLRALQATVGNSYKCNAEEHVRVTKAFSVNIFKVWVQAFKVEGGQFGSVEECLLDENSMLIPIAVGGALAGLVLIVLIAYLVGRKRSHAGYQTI

[2] = target: T2, LAMP1_mL1_hL2_mL34_ΔGYQTI (mouse; human, UniProt P11438 25-369); assay: flow cytometry, transfected 293-F cells
T2 construct: on cells; also called pXL5988; not shown: transmembrane domain and cytoplasmic tail with GYQTI replaced by 5 Ala
T2 chain: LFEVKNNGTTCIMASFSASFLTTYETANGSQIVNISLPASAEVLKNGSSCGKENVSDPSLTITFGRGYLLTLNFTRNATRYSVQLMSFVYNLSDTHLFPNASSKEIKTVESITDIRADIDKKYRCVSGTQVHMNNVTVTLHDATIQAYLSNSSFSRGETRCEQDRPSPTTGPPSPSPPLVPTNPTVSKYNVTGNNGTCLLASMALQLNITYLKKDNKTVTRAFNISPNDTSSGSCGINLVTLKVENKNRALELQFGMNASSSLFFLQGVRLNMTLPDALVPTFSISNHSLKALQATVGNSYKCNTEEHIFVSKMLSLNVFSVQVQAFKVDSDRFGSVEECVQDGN

[3] = target: T3, LAMP1_mL1_hL234_ΔGYQTI (mouse; human); assay: flow cytometry, transfected 293-F cells
T3 construct: on cells; also called pXL5668
T3 chain: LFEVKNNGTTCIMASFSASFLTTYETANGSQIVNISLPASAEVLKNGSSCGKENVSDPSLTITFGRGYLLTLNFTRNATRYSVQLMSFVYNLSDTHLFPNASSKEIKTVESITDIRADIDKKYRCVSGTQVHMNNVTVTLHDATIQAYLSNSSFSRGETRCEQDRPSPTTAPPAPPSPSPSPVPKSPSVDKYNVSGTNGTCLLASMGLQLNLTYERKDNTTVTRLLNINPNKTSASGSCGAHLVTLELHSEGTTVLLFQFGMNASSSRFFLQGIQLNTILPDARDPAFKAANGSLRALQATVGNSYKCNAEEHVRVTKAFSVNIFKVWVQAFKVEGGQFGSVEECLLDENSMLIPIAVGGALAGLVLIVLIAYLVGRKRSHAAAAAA

[4] = target: T4, LAMP1::histag (human, UniProt P11279 29-382); assay: ELISA
T4 construct: extracellular domain without signal peptide, C-terminal 6 His tag, made in HEK293 cells; also called recombinant human LAMP1; human LAMP1 (29-382)
T4 sequence: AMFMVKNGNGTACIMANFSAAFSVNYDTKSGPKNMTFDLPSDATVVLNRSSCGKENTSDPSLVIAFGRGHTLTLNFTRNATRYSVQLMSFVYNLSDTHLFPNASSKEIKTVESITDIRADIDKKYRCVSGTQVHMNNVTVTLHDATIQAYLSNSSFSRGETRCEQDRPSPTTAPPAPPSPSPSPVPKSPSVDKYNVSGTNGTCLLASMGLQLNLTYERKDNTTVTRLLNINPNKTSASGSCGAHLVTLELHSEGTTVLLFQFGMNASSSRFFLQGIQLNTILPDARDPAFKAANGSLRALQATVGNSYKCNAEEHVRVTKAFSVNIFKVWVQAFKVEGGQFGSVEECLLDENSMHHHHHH

[5] = target: T5, cLAMP1::histag (cynomolgus monkey, UniProt P11279 29-380 (human entry)); assay: ELISA
T5 construct: extracellular domain with C-terminal tag that includes 6 His; also called cynomolgus LAMP1 (27-380); cynomolgus monkey LAMP1 protein
T5 chain: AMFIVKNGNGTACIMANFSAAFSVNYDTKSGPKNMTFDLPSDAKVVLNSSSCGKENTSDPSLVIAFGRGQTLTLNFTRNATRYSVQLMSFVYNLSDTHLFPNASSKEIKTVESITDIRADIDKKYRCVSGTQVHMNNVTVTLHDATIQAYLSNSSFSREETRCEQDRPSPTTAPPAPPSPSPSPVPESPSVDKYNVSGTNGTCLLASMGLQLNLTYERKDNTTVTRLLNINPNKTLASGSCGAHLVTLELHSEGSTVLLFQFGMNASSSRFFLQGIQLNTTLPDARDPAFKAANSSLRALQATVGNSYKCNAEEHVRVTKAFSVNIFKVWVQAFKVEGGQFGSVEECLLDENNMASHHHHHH

[6] = target: T6, recombinant human LAMP2 with a C-terminal 10 His-tag (human, UniProt P13473 29-375); assay: ELISA with soluble LAMP1 or LAMP2
T6 construct: bought; also called soluble LAMP2 protein (R&D Systems 6228-LM)
T6 sequence (P13473 other isoform, or with tags, fused parts or gaps): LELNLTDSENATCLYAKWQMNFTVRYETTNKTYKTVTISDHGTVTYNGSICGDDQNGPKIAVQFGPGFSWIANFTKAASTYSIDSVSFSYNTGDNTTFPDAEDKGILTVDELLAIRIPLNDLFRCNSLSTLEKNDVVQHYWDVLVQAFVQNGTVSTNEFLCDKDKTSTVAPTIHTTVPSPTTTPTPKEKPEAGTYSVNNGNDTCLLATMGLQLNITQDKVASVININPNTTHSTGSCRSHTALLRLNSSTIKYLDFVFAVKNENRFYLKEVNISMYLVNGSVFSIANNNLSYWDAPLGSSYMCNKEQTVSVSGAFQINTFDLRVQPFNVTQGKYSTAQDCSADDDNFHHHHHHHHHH

[7] = target: T1, human LAMP1 at the cell surface; assay: flow cytometry, dissociated CR-IGR-034P colon PDX cells
Experimental: Advanced human primary colon tumor CR-IGR-034P was obtained from Patient-derived xenograft in mice. Tumor CR-IGR-034P was enzymatically dissociated using collagenase Type IV (Invitrogen; #17104-019) and deoxyribonuclease I (Invitrogen; #18047-019) for 1 h at 4° C. Cell viability was estimated by Viacount application using Guava® easyCyte™ 8HT Flow Cytometry System. […] 100 μL/well of goat anti-mouse IgG conjugated with Alexa647 (Invitrogen; # A2135) or goat anti-human IgG conjugated with Alexa488 (Invitrogen; # A11013) was added for 45 min at 4° C. and washed three times with PBS 1% BSA. The antibody binding was evaluated after centrifugation and resuspension of cells by adding 200 μl/well PBS 1% BSA and read using Guava® easyCyte™ 8HT Flow Cytometry System. EC50 values were estimated using BIOST@T-SPEED software.

[8] = target: T4, LAMP1::histag; assay: ELISA on recombinant human LAMP1
[9] = target: T5, cLAMP1::histag; assay: ELISA on recombinant cynomolgus LAMP1
[10] = target: T6, recombinant human LAMP2 with a …; assay: ELISA on coated soluble human LAMP2

B1: chMAb2 (antibody, human IgG1, kappa)
heavy: not shown
light: NIVLTQSPVSLAVSLGQRATISCRASESVDINGNTFMHWYQQKPGQSPKLVIYAASNIESGVPARFSGSGSSTDFTFTIDPVEADDVATYYCQQNIEDPWTFGGGTKVEIKRTVAAPSVFIFPPSDEQLKSGTASVVCLLNNFYPREAKVQWKVDNALQSGNSQESVTEQDSKDSTYSLSSTLTLSKADYEKHKVYACEVTHQGLSSPVTKSFNRGEC
notes: chimeric, human IgG1, Ckappa
Question: Which results are given for B1?
Answer: ADCC EC50, NK batch 6712562616 [1]: 2 nM; ADCC EC50, NK batch 67125626389 [1]: 0.1 nM; ADCC EC50, NK batch 67125903091 [1]: 0.5 nM; binding result [2]: no binding; binding result [3]: no binding

B2: MAb4 (antibody, mouse IgG1, V domains shown)
VH: QVQLQQSGAELVRPGTSVKVSCKASGYAFTNYLIEWVKQRPGQGLEWIGVINPGSGGTNYNEKFKGKATLTADKSSSTAYMQLSSLTSDDSAVYFCARYRSYDWYFDVWGAGTTVTVSS
VL: DIQMTQSPASLSASVGETVTITCRVSGNIHNYLAWYQQKQGKSPQLLVYNAKTLADGVPSRFSGSGSGTQYSLKINSLQPEDFGSYYCQHFWSNPYTFGGGTKLEIK
notes: also called antibody from hybridoma 88LAMP1-2
Question: Which results are given for B2?
Answer: EC50 [4]: 0.2 to 0.4 nM; EC50 [5]: 0.2 to 0.4 nM; fold difference of EC50 (LAMP1 versus LAMP2) [6]: > 100 fold; EC50 [7]: 1.3 nM; EC50 [8]: 0.39 nM; EC50 [9]: 0.22 nM; binding result [10]: no binding (tested: 10 µg/mL)
